Molecular target: T1, T. thermophilus RNase H I_(core) fragment (T. thermophilus)
T1 chain: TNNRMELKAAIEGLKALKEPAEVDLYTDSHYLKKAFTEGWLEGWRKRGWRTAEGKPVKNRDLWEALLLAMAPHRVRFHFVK
Experiment: AUC; equilibrium analytical ultracentrifugation (Beckman XL-I); 25, 50 and 100 uM samples; 24,500, 30,000 and 37,000 rpm; absorbance at 250 nm; global fit to a monomer-dimer equilibrium (dimer to monomers); room temperature, 20 mM sodium acetate pH 5.5, 50 mM potassium chloride
Conditions: both partners purified

Kd: ~150 µM | stoichiometry N: 2
B1: T. thermophilus RNase H I_(core) fragment (domain or fragment)
chain: T1 chain
modifications: Printed limits 43-122 use E. coli alignment numbering. The offset is +4 at the N-terminal end (R4=R8, W22=W26, D66=D70) and +5 after the one-residue insertion near 80, so 122=K127. The paper says …

Source: publication PMC4372590, “Autonomously Folding Protein Fragments Reveal Differences in the Energy Landscapes of Homologous RNases H” (PLoS ONE, 2015)
